Assay: confocal colocalisation with GFP-Rab4, transfected HeLa/COS-1
Conditions: glycan lost; control: wild type

Row | Protein | localisation_or_trafficking
1 | human ClC-6 (hClC-6a): AAAA-hClC-6 (protein) parent chain: MAGCRGSLCCCCRWCCCCGERETRTPEELTILGETQEEEDEILPRKDYESLDYDRCINDPYLEVLETMDNKKGRRYEAVKWMVVFAIGVCTGLVGLFVDFFVRLFTQLKFGVVQTSVEECSQKGCLALSLLELLGFNLTFVFLASLLVLIEPVAAGSGIPEVKCYLNGVKVPGIVRLRTLLCKVLGVLFSVAGGLFVEKEGPMIHSGSVVGAGLPQFQSISLRKIQFNFPYFRSDRDKRDFVSAGAAAGVAAAFGAPIGGTLFSLEEGSSFWNQGLTWKVLFCSMSATFTLNFFRSGIQFGSWGSFQLPGLLNFGEFKCSDSDKKCHLWTAMDLGFFVVMGVIGGLLGATFNCLNKRLAKYRMRNVHPKPKLVRVLESLLVSLVTTVVVFVASMVLGECRQMSSSSQIGNDSFQLQVTEDVNSSIKTFFCPNDTYNDMATLFFNPQESAILQLFHQDGTFSPVTLALFFVLYFLLACWTYGISVPSGLFVPSLLCGAAFGRLVANVLKSYIGLGHIYSGTFALIGAAAFLGGVVRMTISLTVILIESTNEITYGLPIMVTLMVAKWTGDFFNKGIYDIHVGLRGVPLLEWETEVEMDKLRASDIMEPNLTYVYPHTRIQSLVSILRTTVHHAFPVVTENRGNEKEFMKGNQLISNNIKFKKSSILTRAGEQRKRSQSMKSYPSSELRNMCDEHIASEEPAEKEDLLQQMLERRYTPYPNLYPDQSPSEDWTMEERFRPLTFHGLILRSQLVTLLVRGVCYSESQSSASQPRLSYAEMAEDYPRYPDIHDLDLTLLNPRMIVDVTPYMNPSPFTVSPNTHVSQVFNLFRTMGLRHLPVVNAVGEIVGIITRHNLTYEFLQARLRQHYQTI | no change
2 | human ClC-6 (hClC-6a): AAN-hClC-6: N410A/N422A (protein) parent chain: MAGCRGSLCCCCRWCCCCGERETRTPEELTILGETQEEEDEILPRKDYESLDYDRCINDPYLEVLETMDNKKGRRYEAVKWMVVFAIGVCTGLVGLFVDFFVRLFTQLKFGVVQTSVEECSQKGCLALSLLELLGFNLTFVFLASLLVLIEPVAAGSGIPEVKCYLNGVKVPGIVRLRTLLCKVLGVLFSVAGGLFVEKEGPMIHSGSVVGAGLPQFQSISLRKIQFNFPYFRSDRDKRDFVSAGAAAGVAAAFGAPIGGTLFSLEEGSSFWNQGLTWKVLFCSMSATFTLNFFRSGIQFGSWGSFQLPGLLNFGEFKCSDSDKKCHLWTAMDLGFFVVMGVIGGLLGATFNCLNKRLAKYRMRNVHPKPKLVRVLESLLVSLVTTVVVFVASMVLGECRQMSSSSQIGNDSFQLQVTEDVNSSIKTFFCPNDTYNDMATLFFNPQESAILQLFHQDGTFSPVTLALFFVLYFLLACWTYGISVPSGLFVPSLLCGAAFGRLVANVLKSYIGLGHIYSGTFALIGAAAFLGGVVRMTISLTVILIESTNEITYGLPIMVTLMVAKWTGDFFNKGIYDIHVGLRGVPLLEWETEVEMDKLRASDIMEPNLTYVYPHTRIQSLVSILRTTVHHAFPVVTENRGNEKEFMKGNQLISNNIKFKKSSILTRAGEQRKRSQSMKSYPSSELRNMCDEHIASEEPAEKEDLLQQMLERRYTPYPNLYPDQSPSEDWTMEERFRPLTFHGLILRSQLVTLLVRGVCYSESQSSASQPRLSYAEMAEDYPRYPDIHDLDLTLLNPRMIVDVTPYMNPSPFTVSPNTHVSQVFNLFRTMGLRHLPVVNAVGEIVGIITRHNLTYEFLQARLRQHYQTI | no change
3 | human ClC-6 (hClC-6a): ANN-hClC-6: N410A (protein) parent chain: MAGCRGSLCCCCRWCCCCGERETRTPEELTILGETQEEEDEILPRKDYESLDYDRCINDPYLEVLETMDNKKGRRYEAVKWMVVFAIGVCTGLVGLFVDFFVRLFTQLKFGVVQTSVEECSQKGCLALSLLELLGFNLTFVFLASLLVLIEPVAAGSGIPEVKCYLNGVKVPGIVRLRTLLCKVLGVLFSVAGGLFVEKEGPMIHSGSVVGAGLPQFQSISLRKIQFNFPYFRSDRDKRDFVSAGAAAGVAAAFGAPIGGTLFSLEEGSSFWNQGLTWKVLFCSMSATFTLNFFRSGIQFGSWGSFQLPGLLNFGEFKCSDSDKKCHLWTAMDLGFFVVMGVIGGLLGATFNCLNKRLAKYRMRNVHPKPKLVRVLESLLVSLVTTVVVFVASMVLGECRQMSSSSQIGNDSFQLQVTEDVNSSIKTFFCPNDTYNDMATLFFNPQESAILQLFHQDGTFSPVTLALFFVLYFLLACWTYGISVPSGLFVPSLLCGAAFGRLVANVLKSYIGLGHIYSGTFALIGAAAFLGGVVRMTISLTVILIESTNEITYGLPIMVTLMVAKWTGDFFNKGIYDIHVGLRGVPLLEWETEVEMDKLRASDIMEPNLTYVYPHTRIQSLVSILRTTVHHAFPVVTENRGNEKEFMKGNQLISNNIKFKKSSILTRAGEQRKRSQSMKSYPSSELRNMCDEHIASEEPAEKEDLLQQMLERRYTPYPNLYPDQSPSEDWTMEERFRPLTFHGLILRSQLVTLLVRGVCYSESQSSASQPRLSYAEMAEDYPRYPDIHDLDLTLLNPRMIVDVTPYMNPSPFTVSPNTHVSQVFNLFRTMGLRHLPVVNAVGEIVGIITRHNLTYEFLQARLRQHYQTI | no change
4 | human ClC-6 (hClC-6a): NAA-hClC-6: N422A/N432A (protein) parent chain: MAGCRGSLCCCCRWCCCCGERETRTPEELTILGETQEEEDEILPRKDYESLDYDRCINDPYLEVLETMDNKKGRRYEAVKWMVVFAIGVCTGLVGLFVDFFVRLFTQLKFGVVQTSVEECSQKGCLALSLLELLGFNLTFVFLASLLVLIEPVAAGSGIPEVKCYLNGVKVPGIVRLRTLLCKVLGVLFSVAGGLFVEKEGPMIHSGSVVGAGLPQFQSISLRKIQFNFPYFRSDRDKRDFVSAGAAAGVAAAFGAPIGGTLFSLEEGSSFWNQGLTWKVLFCSMSATFTLNFFRSGIQFGSWGSFQLPGLLNFGEFKCSDSDKKCHLWTAMDLGFFVVMGVIGGLLGATFNCLNKRLAKYRMRNVHPKPKLVRVLESLLVSLVTTVVVFVASMVLGECRQMSSSSQIGNDSFQLQVTEDVNSSIKTFFCPNDTYNDMATLFFNPQESAILQLFHQDGTFSPVTLALFFVLYFLLACWTYGISVPSGLFVPSLLCGAAFGRLVANVLKSYIGLGHIYSGTFALIGAAAFLGGVVRMTISLTVILIESTNEITYGLPIMVTLMVAKWTGDFFNKGIYDIHVGLRGVPLLEWETEVEMDKLRASDIMEPNLTYVYPHTRIQSLVSILRTTVHHAFPVVTENRGNEKEFMKGNQLISNNIKFKKSSILTRAGEQRKRSQSMKSYPSSELRNMCDEHIASEEPAEKEDLLQQMLERRYTPYPNLYPDQSPSEDWTMEERFRPLTFHGLILRSQLVTLLVRGVCYSESQSSASQPRLSYAEMAEDYPRYPDIHDLDLTLLNPRMIVDVTPYMNPSPFTVSPNTHVSQVFNLFRTMGLRHLPVVNAVGEIVGIITRHNLTYEFLQARLRQHYQTI | no change
5 | human ClC-6 (hClC-6a): ANA-hClC-6: N410A/N432A (protein) parent chain: MAGCRGSLCCCCRWCCCCGERETRTPEELTILGETQEEEDEILPRKDYESLDYDRCINDPYLEVLETMDNKKGRRYEAVKWMVVFAIGVCTGLVGLFVDFFVRLFTQLKFGVVQTSVEECSQKGCLALSLLELLGFNLTFVFLASLLVLIEPVAAGSGIPEVKCYLNGVKVPGIVRLRTLLCKVLGVLFSVAGGLFVEKEGPMIHSGSVVGAGLPQFQSISLRKIQFNFPYFRSDRDKRDFVSAGAAAGVAAAFGAPIGGTLFSLEEGSSFWNQGLTWKVLFCSMSATFTLNFFRSGIQFGSWGSFQLPGLLNFGEFKCSDSDKKCHLWTAMDLGFFVVMGVIGGLLGATFNCLNKRLAKYRMRNVHPKPKLVRVLESLLVSLVTTVVVFVASMVLGECRQMSSSSQIGNDSFQLQVTEDVNSSIKTFFCPNDTYNDMATLFFNPQESAILQLFHQDGTFSPVTLALFFVLYFLLACWTYGISVPSGLFVPSLLCGAAFGRLVANVLKSYIGLGHIYSGTFALIGAAAFLGGVVRMTISLTVILIESTNEITYGLPIMVTLMVAKWTGDFFNKGIYDIHVGLRGVPLLEWETEVEMDKLRASDIMEPNLTYVYPHTRIQSLVSILRTTVHHAFPVVTENRGNEKEFMKGNQLISNNIKFKKSSILTRAGEQRKRSQSMKSYPSSELRNMCDEHIASEEPAEKEDLLQQMLERRYTPYPNLYPDQSPSEDWTMEERFRPLTFHGLILRSQLVTLLVRGVCYSESQSSASQPRLSYAEMAEDYPRYPDIHDLDLTLLNPRMIVDVTPYMNPSPFTVSPNTHVSQVFNLFRTMGLRHLPVVNAVGEIVGIITRHNLTYEFLQARLRQHYQTI | no change
6 | human ClC-6 (hClC-6a): NNA-hClC-6: N432A (protein) parent chain: MAGCRGSLCCCCRWCCCCGERETRTPEELTILGETQEEEDEILPRKDYESLDYDRCINDPYLEVLETMDNKKGRRYEAVKWMVVFAIGVCTGLVGLFVDFFVRLFTQLKFGVVQTSVEECSQKGCLALSLLELLGFNLTFVFLASLLVLIEPVAAGSGIPEVKCYLNGVKVPGIVRLRTLLCKVLGVLFSVAGGLFVEKEGPMIHSGSVVGAGLPQFQSISLRKIQFNFPYFRSDRDKRDFVSAGAAAGVAAAFGAPIGGTLFSLEEGSSFWNQGLTWKVLFCSMSATFTLNFFRSGIQFGSWGSFQLPGLLNFGEFKCSDSDKKCHLWTAMDLGFFVVMGVIGGLLGATFNCLNKRLAKYRMRNVHPKPKLVRVLESLLVSLVTTVVVFVASMVLGECRQMSSSSQIGNDSFQLQVTEDVNSSIKTFFCPNDTYNDMATLFFNPQESAILQLFHQDGTFSPVTLALFFVLYFLLACWTYGISVPSGLFVPSLLCGAAFGRLVANVLKSYIGLGHIYSGTFALIGAAAFLGGVVRMTISLTVILIESTNEITYGLPIMVTLMVAKWTGDFFNKGIYDIHVGLRGVPLLEWETEVEMDKLRASDIMEPNLTYVYPHTRIQSLVSILRTTVHHAFPVVTENRGNEKEFMKGNQLISNNIKFKKSSILTRAGEQRKRSQSMKSYPSSELRNMCDEHIASEEPAEKEDLLQQMLERRYTPYPNLYPDQSPSEDWTMEERFRPLTFHGLILRSQLVTLLVRGVCYSESQSSASQPRLSYAEMAEDYPRYPDIHDLDLTLLNPRMIVDVTPYMNPSPFTVSPNTHVSQVFNLFRTMGLRHLPVVNAVGEIVGIITRHNLTYEFLQARLRQHYQTI | no change
7 | human ClC-6 (hClC-6a): NAN-hClC-6: N422A (protein) parent chain: MAGCRGSLCCCCRWCCCCGERETRTPEELTILGETQEEEDEILPRKDYESLDYDRCINDPYLEVLETMDNKKGRRYEAVKWMVVFAIGVCTGLVGLFVDFFVRLFTQLKFGVVQTSVEECSQKGCLALSLLELLGFNLTFVFLASLLVLIEPVAAGSGIPEVKCYLNGVKVPGIVRLRTLLCKVLGVLFSVAGGLFVEKEGPMIHSGSVVGAGLPQFQSISLRKIQFNFPYFRSDRDKRDFVSAGAAAGVAAAFGAPIGGTLFSLEEGSSFWNQGLTWKVLFCSMSATFTLNFFRSGIQFGSWGSFQLPGLLNFGEFKCSDSDKKCHLWTAMDLGFFVVMGVIGGLLGATFNCLNKRLAKYRMRNVHPKPKLVRVLESLLVSLVTTVVVFVASMVLGECRQMSSSSQIGNDSFQLQVTEDVNSSIKTFFCPNDTYNDMATLFFNPQESAILQLFHQDGTFSPVTLALFFVLYFLLACWTYGISVPSGLFVPSLLCGAAFGRLVANVLKSYIGLGHIYSGTFALIGAAAFLGGVVRMTISLTVILIESTNEITYGLPIMVTLMVAKWTGDFFNKGIYDIHVGLRGVPLLEWETEVEMDKLRASDIMEPNLTYVYPHTRIQSLVSILRTTVHHAFPVVTENRGNEKEFMKGNQLISNNIKFKKSSILTRAGEQRKRSQSMKSYPSSELRNMCDEHIASEEPAEKEDLLQQMLERRYTPYPNLYPDQSPSEDWTMEERFRPLTFHGLILRSQLVTLLVRGVCYSESQSSASQPRLSYAEMAEDYPRYPDIHDLDLTLLNPRMIVDVTPYMNPSPFTVSPNTHVSQVFNLFRTMGLRHLPVVNAVGEIVGIITRHNLTYEFLQARLRQHYQTI | no change

Source: PMC1868598
